Assay [1] deals with EGFRvIII (UniProt P00533). In words: cell-based or functional assay.
Assay [2] has as its target human epidermal growth factor receptor (EGFR) (human) (UniProt P00533). In words: cell-based or functional assay.

In assay [1], “chimeric antigen receptor 806-28BBZ, scFv(EGFR)-CD28-CD28-CD137-CD3 zeta (from UniProt P01732 138-182; P10747 153-220; Q07011 214-255; P20963 52-164)” displayed a Cytotoxicity % (LDH release), U87-EGFRvIII cells, effector to target 1:1 of 41%; a Cytotoxicity % (LDH release), U87-EGFRvIII cells, effector to target 3:1 of 81%; a Cytotoxicity against target cells % (LDH release), U87-EGFRvIII cells, effector to target 5:1, 20 h of 85%. In assay [2], this substance showed a Cytotoxicity % (LDH release), BxPC-3 cells, effector to target 1:1 of 49%; a Cytotoxicity % (LDH release), BxPC-3 cells, effector to target 1:3 of 24%; a Cytotoxicity % (LDH release), BxPC-3 cells, effector to target 3:1 of 70%; a Cytotoxicity % (LDH release), CFPAC-1 cells, effector to target 3:1 of 40%. Further, in assay [2], the Cytotoxicity % (LDH release), PANC-1 cells, effector to target 1:1 stood at 28%; the Cytotoxicity % (LDH release), PANC-1 cells, effector to target 3:1 came out at 65%; the Cytotoxicity % (LDH release), U87-EGFR cells, effector to target 1:1 is 49%; the Cytotoxicity % (LDH release), U87-EGFR cells, effector to target 1:3 came to 29%. In assay [2], the Cytotoxicity % (LDH release), U87-EGFR cells, effector to target 3:1 was found to be 98%; the Cytotoxicity % (LDH release), U87 cells, effector to target 1:1 is -14%; the Cytotoxicity % (LDH release), U87 cells, effector to target 1:3 was -25%; the Cytotoxicity % (LDH release), U87 cells, effector to target 3:1 is -2%.

“chimeric antigen receptor 806-Z, scFv(EGFR)-CD8-CD3 zeta (from UniProt P01732 138-203; P20963 52-164)”: in assay [1], the Cytotoxicity against target cells % (LDH release), U87-EGFRvIII cells, effector to target 5:1, 20 h was 56% and the cytotoxicity against tumor cells U87-EGFRvIII (LDH release) turned out to be 55.5%. Besides, in assay [2], the Cytotoxicity % (LDH release), BxPC-3 cells, effector to target 1:1 stood at 24%; the Cytotoxicity % (LDH release), BxPC-3 cells, effector to target 1:3 amounted to 14%; the Cytotoxicity % (LDH release), BxPC-3 cells, effector to target 3:1 was 44%; the Cytotoxicity % (LDH release), CFPAC-1 cells, effector to target 1:1 is 35%. In assay [2], this substance gave a Cytotoxicity % (LDH release), CFPAC-1 cells, effector to target 1:3 of 12%; a Cytotoxicity % (LDH release), CFPAC-1 cells, effector to target 3:1 of 43%; a Cytotoxicity % (LDH release), PANC-1 cells, effector to target 1:1 of 34%; a Cytotoxicity % (LDH release), PANC-1 cells, effector to target 1:3 of 18%.

The values above are taken from patent US20170159025A1.
